This is an account of results in US20230067757A1 (NOVAROCK BIOTHERAPEUTICS, published 2023).

Where a chain is given by its changes, count along the chain named. Read-outs that look alike come from different tables or passages of the source.

Experiment [1] concerns the target T1, human claudin 18 isoform 2 (claudin 18.2) (human).
T1 construct: Recombinant on transfected CHO cells (CHO-CLDN18.2) or endogenous on tumor cell lines PATU8988S, NUGC-4, KATOIII; the cell line is named under assay; also called CLDN18.2
Kind of experiment: immunofluorescence imaging, CHO-CLDN18.2 cells (FIG. 3C); Table 6 prints 1.3. On the procedure:
(§1) The specific cellular binding affinity of anti-Claudin18.2 antibodies was tested on CHO-CLDN18.2 (transfected CHO cell expressing recombinant human CLDN18.2) and CHO-CLDN18.1 (transfected CHO cell expressing recombinant human CLDN18.1) cells. The cells were plated in complete media containing F12 with 10% FBS, then incubated overnight at 37° C., anti-Claudin18.2 antibodies were serial diluted and added to the assay plates, incubated at 4° C. for 2 hours, followed by fixing cells and further staining the cells for 30 minutes with Alexa Fluor® 488 Goat Anti-Human IgG (H+L) secondary antibody, invitrogen Cat #A-11013 for detection. The binding was assessed by imaging the cells and quantifying the fluorescence intensity using a Biotek Cytation.

Experiment [2] has as its target T2, human claudin 18 isoform 1 (claudin 18.1) (human, UniProt P56856 1-261).
T2 construct: Recombinant on transfected CHO cells (CHO-CLDN18.1); also called CLDN18.1
In words: immunofluorescence imaging on CHO cells expressing human CLDN18.1, antibody at 10 µg/ml. An outline of the steps:
(§2)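 Binding on CHO cells transfected with human CLDN18.2, with human CLDN18.1 transfectants as counter-screen, plated overnight at 37° C. Serially diluted antibodies incubated 2 h at 4° C; fixed cells stained 30 min with Alexa Fluor 488 anti-human IgG and fluorescence intensity quantified by imaging.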

Experiment [3] deals with T1, human claudin 18 isoform 2 (claudin …). In words: cell-based or functional assay.
The target is the same in experiment [4]. In words: imaging, PATU8988S cells (endogenous CLDN18.2); +++ = EC50 between 2 nM and 20 nM. On the procedure:
Tumor cells were plated in complete media containing RPMI1640 with +10% FBS, then incubated overnight at 37° C., Claudin18.2 antibodies were serial diluted and added to the assay plates, incubated at 4° C. for 2 hours, followed by fixing cells and further staining the cells for 30 minutes with Alexa Fluor® 488 Goat Anti-Human IgG (H+L) secondary antibody (invitrogen Cat #A-11013) for detection. The binding was assessed by imaging the cells and quantifying the fluorescence intensity using a Biotek Cytation.

For experiment [5] the target is unchanged. Kind of experiment: cell-based or functional assay. This is another data set of the same source.
For experiment [6] the target is unchanged. Kind of experiment: immunofluorescence imaging, CHO-CLDN18.2 cells, serial dilution. The essentials:
as §2

Experiment [7] shares this target. In words: immunofluorescence imaging, CHO-CLDN18.2 cells; low end tied to Hu-18 by Table 6 (0.8). On the procedure:
as §1

In experiment [8] the target is T2, human claudin 18 isoform 1 (claudin …). In words: imaging, CHO-CLDN18.1 cells, dose titration. On the procedure:
as §1

In experiment [9] the target is T1, human claudin 18 isoform 2 (claudin …). Kind of experiment: cell-based or functional assay. The source holds these as a separate data set.
The target is the same in experiment [10]. In words: immunofluorescence imaging, CHO-CLDN18.2 cells (FIG. 3B); Table 5 prints 3.0. On the procedure:
as §1

The target is the same in experiment [11]. In words: imaging, PATU8988S cells (endogenous CLDN18.2); ++ = EC50 between 20 nM and 100 nM.
The target is the same in experiment [12]. In words: immunofluorescence imaging, CHO-CLDN18.2 cells (FIG. 3C); Table 5 prints 0.8. The protocol: as §1
The target is the same in experiment [13]. Kind of experiment: imaging, PATU8988S cells (endogenous CLDN18.2); ++++ = EC50 less than 2 nM.

T2 sequence (P56856 whole entry, canonical isoform): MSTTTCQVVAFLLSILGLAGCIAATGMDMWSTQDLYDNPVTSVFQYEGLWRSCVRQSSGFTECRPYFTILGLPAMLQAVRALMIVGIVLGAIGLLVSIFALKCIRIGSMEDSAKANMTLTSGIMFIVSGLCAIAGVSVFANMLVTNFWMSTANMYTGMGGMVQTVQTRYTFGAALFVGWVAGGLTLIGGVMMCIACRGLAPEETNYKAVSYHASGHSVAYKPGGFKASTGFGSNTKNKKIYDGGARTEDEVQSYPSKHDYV

B1: Hu-3 (antibody, V domains shown)
VH: QLQLQESGPGLVKPSETLSLTCTVSDGPISSSRYYWGWIRQPPGKGLEWIGSFHYSGSTYYNPSLKSRVTISADTSKNQFSLKLSSVTAADTAVYYCARLVLRYFDWLGFFDLWGRGTLVTVSS
VL: EIVMTQSPAILSLSPGERAALSCRASQSVRSSYLSWYQQKPGQAPRLLIYGTSTRATGIPARFSGSGSGTDFTLTISSLQPEDFAVYYCQQDYNLPITFGQGTRLEFK
Turning to B1, the EC50 (commonly the concentration at which the effect is half-maximal) in experiment [1] is 1.34 nM; in experiment [4], 2 to 20 nM; in experiment [6], 1.3 nM. For the same molecule, the binding result in [2] is listed as “no binding (tested: 10 µg/ml)”. Further, in [3], the “endocytosis derived cell toxicity EC50, CHO-18.2 cells (anti-IgG Fc-MMAF co-internalization)” value (shortened to “endocytosis derived cell toxicity EC50”) came out at 1.23 nM. In [5], the “ADCC EC50, CHO-18.2 target cells (mouse FcγRIV reporter bioluminescence)” value was 3.11 nM.

B2: Hu-18 (antibody, V domains shown)
VH: QVQLVQSGAEVKKPGASVKVSCRVSGYTLSALSMYWVRQAPGKGLEWMGGFDPEDGKTIYAQKFQGRVTMTEDTSTGTAYMELSSLRSEDTAIYYCATTLRYFDWNYWGQGTPVTVSS
VL: DIVMTQTPLSSPVTLGQPASISCRSSQSLVHSDGNTYLSWLQQRPGQPPRLLIYKVSKRFSGVPDRFSGSGAGTDFTLKISRVEAEDVGVYYCTQGTQFPRTFGQGTKVEIK
notes: Human V regions (Trianni mice)
Regarding B2, the EC50 is 0.77 nM in [7] and 0.8 nM in experiment [6]. Also, in experiment [8], the binding result is given as “no binding (tested: 133.4 nM)”.

B3: Ms2 (antibody, V domains shown)
VH: QVQLKESGPGLVAPSQSLSITCTVSGFSLTSYGVHWVRQPPGKGLEWLGVIWAGGSTNYNSALMSRLSISKDNSKSQVFLKMNSLQTDDTAMYYCARDFTTATGFDYWGQGTTLTVSS
VL: DIVMTQSPSSLSVSAGEKVTMSCKSSQSLLNSGNQKNYLAWYQQKPGQPPKLLIYGASTRESGVPDRFTGSGSGTDFTLTISSVQAEDLAVYYCQNDHSYPFTFGSGTKLEIK
B3: in experiment [9], the “endocytosis derived cell toxicity EC50” value was found to be 2.55 nM. In [2], the binding result is “no binding (tested: 10 µg/ml)”. For the same molecule, the EC50 was 2.8 nM in experiment [10], 3 nM in [6] and 20 to 100 nM in experiment [11].

B4: Ms4 (antibody, V domains shown)
VH: EVQLQQSGPELEKPGASVKISCKASGYSFTGYNMNWVKQSNGKSLEWIGNIDPYYGGTRYNQKFKGKATLTVDRSSSTAYMQLKSLTSEDSAVYYCARLGLGNAMDYWGQGTSVTVSS
VL: B3 VL with S10F, S12T, S14T, N37S, A40T, G56W, H98Y, S99Y, K109E
For B4, the “endocytosis derived cell toxicity EC50” value in [9] worked out at 0.98 nM. Moreover, in [2], the binding result is “no binding (tested: 10 µg/ml)”. The EC50 in experiment [12] was 0.75 nM; in experiment [13], less than 2 nM; in experiment [6], 0.8 nM.
